Test results: article PMC12416549 (2024)
Numbering of substitutions follows the chain as printed. Names and notes keep the numbering of the source.

T1: TNFR1 (Homo sapiens, UniProt P19438)
T1 chain: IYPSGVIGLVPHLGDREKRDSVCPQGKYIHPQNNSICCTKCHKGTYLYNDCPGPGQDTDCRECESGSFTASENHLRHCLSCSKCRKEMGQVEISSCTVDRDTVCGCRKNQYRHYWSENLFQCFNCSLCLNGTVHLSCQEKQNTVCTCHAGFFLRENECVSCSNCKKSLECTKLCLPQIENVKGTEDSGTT

B1: K88Y (designed binder)
chain: SMEEEVEKAAKEYEKKKKEAIEKHLEKLKAKDKEAAERFLKELEEAAKEYAKDEAKTMSEEEAKRRAKKYKEKVLLSELSEEEQKEIYEAEEKLVRTILKYVEEAAK
B2: L99N (designed binder)
chain: B1 chain with Y88K, L99N
B3: E78L (designed binder)
chain: B1 chain with E78L, Y88K
B4: E89G (designed binder)
chain: B1 chain with Y88K, E89G
B5: R65L (designed binder)
chain: B1 chain with R65L, Y88K
B6: Q84F (designed binder)
chain: B1 chain with Q84F, Y88K
B7: Q84E (designed binder)
chain: B1 chain with Q84E, Y88K
B8: T97Y (designed binder)
chain: B1 chain with Y88K, T97Y
B9: K27D (designed binder)
chain: B1 chain with K27D, Y88K
B10: D53K (designed binder)
chain: B1 chain with D53K, Y88K
B11: L76S (designed binder)
chain: B1 chain with L76S, Y88K
B12: K85Q (designed binder)
chain: B1 chain with K85Q, Y88K
B13: E3S (designed binder)
chain: B1 chain with E3S, Y88K
B14: Y101G (designed binder)
chain: B1 chain with Y88K, Y101G
B15: E34V (designed binder)
chain: B1 chain with E34V, Y88K
B16: E104M (designed binder)
chain: B1 chain with Y88K, E104M
B17: A36T (designed binder)
chain: B1 chain with A36T, Y88K
B18: E78S (designed binder)
chain: B1 chain with E78S, Y88K
B19: R96P (designed binder)
chain: B1 chain with Y88K, R96P
B20: L28F (designed binder)
chain: B1 chain with L28F, Y88K
B21: E3R (designed binder)
chain: B1 chain with E3R, Y88K
B22: Y13N (designed binder)
chain: B1 chain with Y13N, Y88K
B23: K31I (designed binder)
chain: B1 chain with K31I, Y88K
B24: A10E (designed binder)
chain: B1 chain with A10E, Y88K
B25: K8P (designed binder)
chain: B1 chain with K8P, Y88K
B26: K69Q (designed binder)
chain: B1 chain with K69Q, Y88K
B27: S77R (designed binder)
chain: B1 chain with S77R, Y88K
B28: K88R (designed binder)
chain: B1 chain with Y88R
B29: K18N (designed binder)
chain: B1 chain with K18N, Y88K
B30: S1S (designed binder)
chain: B1 chain with Y88K
B31: R38I (designed binder)
chain: B1 chain with R38I, Y88K
B32: A47E (designed binder)
chain: B1 chain with A47E, Y88K
B33: E34M (designed binder)
chain: B1 chain with E34M, Y88K
B34: F39N (designed binder)
chain: B1 chain with F39N, Y88K
B35: E89S (designed binder)
chain: B1 chain with Y88K, E89S
B36: K18R (designed binder)
chain: B1 chain with K18R, Y88K
B37: Y70T (designed binder)
chain: B1 chain with Y70T, Y88K
B38: E37G (designed binder)
chain: B1 chain with E37G, Y88K
B39: E19I (designed binder)
chain: B1 chain with E19I, Y88K
B40: A90I (designed binder)
chain: B1 chain with Y88K, A90I

Target: T1, TNFR1
Assay: yeast display SC50

| Binder | apparent Kd (screen) |
| --- | --- |
| B1 | 0.49 nM |
| B2 | 6.43 nM |
| B3 | 0.79 nM |
| B4 | 1.4 nM |
| B5 | 1.05 nM |
| B6 | 5.84 nM |
| B7 | 4.39 nM |
| B8 | 0.539 nM |
| B9 | 0.956 nM |
| B10 | 0.208 nM |
| B11 | 4.83 nM |
| B12 | 0.539 nM |
| B13 | 2.73 nM |
| B14 | 0.446 nM |
| B15 | 0.446 nM |
| B16 | 0.869 nM |
| B17 | 1.69 nM |
| B18 | 1.54 nM |
| B19 | 1.27 nM |
| B20 | 0.446 nM |

| Binder | apparent Kd (screen) |
| --- | --- |
| B21 | 1.4 nM |
| B22 | 0.446 nM |
| B23 | 0.869 nM |
| B24 | 1.27 nM |
| B25 | 3.63 nM |
| B26 | 0.446 nM |
| B27 | 1.86 nM |
| B28 | 0.49 nM |
| B29 | 0.539 nM |
| B30 | 0.539 nM |
| B31 | 1.4 nM |
| B32 | 0.0802 nM |
| B33 | 0.446 nM |
| B34 | 3.3 nM |
| B35 | 0.49 nM |
| B36 | 0.79 nM |
| B37 | 7.07 nM |
| B38 | 0.446 nM |
| B39 | 0.869 nM |
| B40 | 1.4 nM |
